Assay results reported in paper PMC9820451, “Coprinopsis cinerea Galectin CGL1 Induces Apoptosis and Inhibits Tumor Growth in Colorectal Cancer Cells” (International Journal of Molecular Sciences, 2022).

Target: the molecule itself
Assay: dynamic light scattering; dilutions of the purified galectin filtered through 0.22 µm membranes, Zetasizer Nano-S; molecular weight estimated from the hydrodynamic radius; self-association, tetramer

B1: Coprinopsis cinerea galectin CGL1 (natural protein)
chain: MLYHLFVNNQIKLQDDFKAEAVATIRSSVFNSKGGTTVFNFLSAGENILLHISIRPGENAIVFNSRTKGGAWGPEERVPYAGKFKGPNPSITVLDHGDRFQILFDNATAIYYTKRIKENAAAIAYSAENSLFSSPVTVDIHGLLPPLPPA
notes: galectin CGL1 of Coprinopsis cinerea, full-length cgl1 amplified from genomic DNA of strain Okayama 7 (#130; ATCC MYA-4618), cloned into pET22b(+); No removal of the tag is told
stoichiometry N: 4
